Here are results for 41 sequences from the nanobody polyreactivity screen of Harvey et al. (2022).

The nature of this data set: yeast display, Sf9 membrane polyspecificity reagent, FACS + sequencing; frameworks hold sequencing errors. Summed up:
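Using colony PCR, genes from sorted yeast display clones were amplified, then sequenced on MiSeq at 2 × 250 and filtered by CDR length. The clones had been stained with 10% biotinylated, detergent-solubilized Sf9 membrane reagent for 1 hour at 4 °C and sorted by FACS into low and high (top ~1%) gates on anti-HA and streptavidin fluorescence. Polyreactivity labels come from the gate of origin.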
Turning to “QVQLVESGGGLVQAGGSLRLSCAASGFIFNIYGMGWYRQAPGKERELVAAISRGGSTYYADSVKGRFTISRDNAKNTGYLQMNSLTPEDTAVYYCAAVGYTLEYEYWGQGTQVTVSS”, the “polyreactivity (PSR sort gate)” value is recorded as “low polyreactivity”.
The entry for “QVQLVESGGGLVQAGGSLRLSCAASGIIFRPYAMGWYRQAPGKERELVAAITGSGVSTYYADSVKGRFTISRDNAKNTVYLQMNSLKPEDTAVYYCAARYDVHYDGMDYWGQGTQVTVSS” is “low polyreactivity”; for “QDQLVDSGVCLVQARGSLRLSCAASGRIFDAYTMGWYRQAPGKESELVASITGRDGSTYYADSVKGRFTISRDNAKNTVYLQMNSLKPEDTAVDYCNAKYSSFGIRYNYWGQGTQVTVSS” it is “high polyreactivity”; for “QVQLVESGGGLVQAGGSLRLSCAASGRIFAYYAMGWYRQAPGKERELVATINYSGTSTYYADSVKGRFTISRDNAKNTVYLQMNSLKPEDTAVYYCAARYGYAVYYYGTPVRRYYYWGQGTQVTVSS” it is “high polyreactivity”.
The entry for “QVQLVESGGGLVQAGGSLRLSSASSRSTFLLNAMGWYRQEPGKERELVAAITWTGGSTYYADSVKGLFTISRDNANNNVYLQMNSLNQEDTAVYYCAAETYVTSYYYWGQGTQVTVSS” is “low polyreactivity”; for “QGQIVESWGGLVQAGGSLRLSCAASGTFFTYMGWYRQAPGKERELVAAIRNGGSTNYADSVKGRCTISGDNAKNTVYLQMHSLKPEDTAVYYCAARVTYSRGYRGGSRTKYDSWGQGTQVTVSS” it is “low polyreactivity”; for “QVQLVESGGGLDQAGGSLRLSCAAYGRILHFYAMGWYRQAPGKERELVSAIRWSSGRTYYADSVKGRFTISRDNAKNTVYLQMNSLKPEDTAVYYCAANNGYGMDYWGQGTQVTVSS” it is “high polyreactivity”.
Take “QVQLVESGGGLVHAGGSLRLSCAASGSTFIYNAMGWDRQAPGKERELVAAITWNGGSTYYADSVKGRFTLSRDIAKNTVYLQMISLNPEDTAVYYCAVDKGSQPHYDYWGQVTQVTVSS”: the “polyreactivity (PSR sort gate)” value is recorded as “low polyreactivity”.
The result for “QVQLVDSGGGLVQAGGSLRLSCAASGRTIHYYAMGWYRQAPGKEREVVAVISSGGSTYYADSVKGRFTISRDNAKNTVYLQMNSLKPEDTAVYYCAALSSRTYKTGYYTYDYWGQGTQVTVSS” reads “low polyreactivity”; that for “QVQLVETGGGLVQAGGSLRLSCAASGRIFYLYAMGWYRQAPGKEWELVAAISSSGGSTYYADSVKGRFTISRDNAKTTVYLQMNSLKPEDTAVYYCNARRRTVPYRYDYWGQGTQVTVSS”, “high polyreactivity”; that for “QVQLVESGGGLVQAGGSLRLSCAASGYNFFSYAKGWYRQPPGKERELVAAISRGGRTYYADSVKGRFTISRDNAKNTVYLQMKILKPEDTAVYYCNAVSTPGKYGYWGQGTQVTVSS”, “high polyreactivity”.
The entry for “QVQLVESGGGLVQAGGSLRLSCAASGSIFVNNALGWYRQAPGKERELVAAISSRSSRTFYADSVKGRFTISRDNAKNTVYLQMNSLKPEDTAVYYCAVKKRAPDGDYWGQGTQVTVSS” is “high polyreactivity”.
The result for “QVQLVESGGGLVQAGGSLRLSCAASGRTFPAYAMGWYRQAPRKERELVARISYSGGNTYYADSVKGRFTISRDNAKNTVYLQMNSLKPEDTAVYYCAATRSHYPYRSGGDYWGQGTQVTVSS” reads “low polyreactivity”; that for “QVQLVESGGGLVQAGGSLRLSCAASGRTFGYNGMGWYRQAPGKERELVAAINSGGNTNYADSVKGRFTISRDNAKNTVYLQMNSLKPEDTSVYYCAKYGTLFEPVPNEYDYWGQGTQVTVSS”, “low polyreactivity”.
As to “QVELVESGGGLVQAGGRPRLSCAASGSTFAGYAMGWERQAPGKERELVAAISRRGGSTYYADSVKGRFTISRDNAKNTVYLQMNSLKPEDTAVYFFARDYPLHYDYWGQGTQVTVSS”, the “polyreactivity (PSR sort gate)” value is “high polyreactivity”.
Take “QVQLLESGGGLVQAGGSLRLSCAASGLTIKQYAMGWYRQAPGKESELVAAISKSGGRTYYADSVKGRFTISRDNAKNTVYLQMNSLKPEDTAVYYCNARAGQRQGWEYDYWGQGTQVTVSS”: the “polyreactivity (PSR sort gate)” value is “high polyreactivity”.
The result for “QVQLVESGGGLVQAGGSLRLSCAASGSIFYFNAMGWYRQAPGKERELVAAISSGGGTNYADSVKGRFTISRDNAKNTVYLQMNSLKPEDTAVYYCAAAVSLFYPTWYYFSYDYWGQGTQVTVSS” reads “low polyreactivity”; that for “QVQLVESGGGLVQAGGSLRLSCAASGRIFWFYTMGWYRQAPGKERELVAAISTSGGSTYYADSVKGRFTISRDNAKNTVYLQMNSLKPEDTAVYYCAAQNGYYPQHDYWGQGTQVTVSS”, “high polyreactivity”.
The result for “QVQLVDSGGGLVQAGGSLRLSCAASGSIFVSYTMGRYRQAPGKEREFVAAITKSGGSTYYADSVKGRFTISRDNAKNTVYLQMNSLKPEDTAVYYCAADWLHYVYEGYDYWGQGTQVTVSS” reads “low polyreactivity”; that for “QVQLVESVGGLVQAGGSLRLSCAASGFTFYRYAMGWYRQAPGKERELVAAISWSGGSTYYADSVKGRFTISRDNAKNTVYLQMNSLKPEDTAVYYCAARGGYYDYYYWGQGTQVTVSS”, “high polyreactivity”.
The result for “QVQLVESGGGLVQAGGSLRLSCAASGSIFRRYAMGWYRQAPGKERELVASISSRGTRTYYADSVKGRFTISRDTAKNTVYLQMNSLKPEDTAVYYCAASYYTPYDYWGQGTQVTVSS” reads “high polyreactivity”; that for “QVQLVESGGGLVQAGGSLRLSCAASGRTFRYYALGWYRQAHGKERELVPRITRGATTNYADSVKGRFTISRDNAKNTVYLQMNSLKPEDTAVYYCAVTPLYGSDRRGWFSSDYWGQGTHVTVSS”, “high polyreactivity”; that for “QVQLVESGGGLVQAGGSLRLSCAASGSIFYVYAMGWYSQARGKEMELVAAISSSAGSTYYADSVKVRFTISRDNAKTTVYLQINSLIPEDTAVDYCAAKVRYSLRKYYYWGQGTQVTVSS”, “high polyreactivity”.
For “QVQLVESGGGLVQAGGSLRLSCAASGFIFKRYTMGWYRQAPGKERELVAAISANGGRTYYADSVKGRFTISRDNAKNTVYLQMNSLKPEDTAVYYCAATRWDYTLYGYDYWGQGTQVTVSS”, the “polyreactivity (PSR sort gate)” value is given as “high polyreactivity”.
The entry for “QVQLVESGGGLVQAGGSLRLSCAASGSIFGYNVMGWYRQAPGKERELVATISSSGGTNYADSVKGRFTISRDNAKNTVYLQMNSLKPEDTAVYYCNADVLDGGYDYWGQGTQVTVSS” is “low polyreactivity”.
The entry for “QVQLVESGGGLVQAGGSLRLSCAASGSIFSYYVMGWYRQAPGKERELVAAITRSGGSTYYADSVKGRFTISRDNAKNTVYLQMNSLKPEDTAVYDCNALWRVRGDYWGQGTQVTVSS” is “high polyreactivity”.
The entry for “QVQLVESGGGVVQAGGSLRLSCAASGSIFNGYAMGWYRQAPGNEWELVAAISGNGGRTYYADSVKGRFTFSRDYAKNTVYLQMNSLKPEETADYYCNKVSGYYVDYWGQGSQVTVSS” is “high polyreactivity”; for “QVQLVESGGGLVQAGGSLRLSCAASGRTFPLYAMGWYRQAPGKERELVAAISYICGSTYYADSVKGLFTISRDNAKNTVYLQMNSLKPEDTAVYYCNADYNYAYDYWGQGTQVTVSS” it is “low polyreactivity”; for “QVQLVESGGGLVQAGGSLRLSCAASGRTFVRNAMGWYRQAPGKERELVAAITRSGGSTYYADSVKGRFTISRDNAKNTVYLQMNSLKPEDTAVYYCSARPPYRVGIVPLGRREYYWGQGTQVTVSS” it is “high polyreactivity”.
In the case of “QVQLVESGGGLVQAGGSLRLSCAASGFTFRYYAMGWYRQAPGKERELVASISGTGGRTYADSVKGRFTISRDNAKNTVYLQMNSLKPEDTAVYYCAAWSYAYYYRLRYVSHDYWGQGTQVTVSS”, the “polyreactivity (PSR sort gate)” value is given as “high polyreactivity”.
Consider “QVQLVESGGGLVQAGGSLRLSCAASGYILRSNAMGWYRQAPGKEREFVAAITYSGGSTYYADSEKGRFTISLDNAMNSVYLQMNSLKPEDTAVYYCAKTTRYQRGYGYWGQGTQVTVSS”, for which the “polyreactivity (PSR sort gate)” value is given as “low polyreactivity”.
The result for “QVQLVESGGGLVQAGGSLRLSCAASGRIFGYYTMGWYRQAPGKERELVAAINGRGTSTYYADSVKGRFTISRDNAKNTVYLQMNSLKPEDTAVYYCAADGYTRADDYWGQGTQVTVSS” reads “high polyreactivity”; that for “QVQLVESGGGLVQAGGSLRLSCAASGRTFGDYAMGWYRQAPGKERELVAAISGTGGSTYYADSVKGRFTISRDNAKNTVYLQMNSLKPEDTAVYYCAARLKYIRFYYWGQGTQVTVSS”, “high polyreactivity”; that for “QVQLVESGGGLVQAGGSLRLSCAASGRTIEWYAMGWYRQAPGKEREFVARISGIGGSTYYADSVKGRFTISRDKAENTVYLQMNSLKPEDTAVYYCAAVSYFGYYYWGQGTQVTVSS”, “high polyreactivity”.
The entry for “QVQHEESGGGLVQAGGSLRLSCAASGRIFGTDAMGWFRQAPGKDRELVAAIRSSGDSTYYADSVKGRFTISRDNAKNTVYLQMNSLKPEDTAVYYCARTLRYYRPVLLVYRFGYWGQGTQVTVSS” is “high polyreactivity”; for “QVQLVESGGGLVQAGGSLRLSCAASGSIFSGNAMGWYRQAPGKERELVAAITSGGSTYYADSVKGRFTISRDNAKNTVYLQMNSLKPEDTAVYYCAAVWYQYYYDRRHDYWGQGTQVTVSS” it is “low polyreactivity”.
The entry for “QVQLVESGGGLVQAGGSLRLSCAASGLIFYTNAMGWYRQAPGKERELVAAIDRASTNYADSVKGRFTISRDNAKNTVYLQMNSLKPEDTAVYYCAAGAGRSTFTVGYWGQGTQVTVSS” is “low polyreactivity”; for “QVQLVESGGGLVPAGGSLRLSCAASGFIFQWYAMGWYRQAPGKERELVAAISSSGGSTYYADSVKGRFTISRDNAKNTVYLQMNSLKPEDTAVYYCAAVWASYPYRGVDYWGQGTQVTVSS” it is “high polyreactivity”; for “QVQLVESAGGLVQAGGSLRLSCAATGFIFWGNAMGWDRQAPGKERELVAGIRSLGGTTSYADSVKGRFTISRDNAKNTVYLQMNSLKPEDTAVYYCAAKYSYYTYAGDGGLFSWSYGYWGQGTQVTVSS” it is “low polyreactivity”.
Regarding “QDQHVESGGGLVQAGGSLRLSCAASGSTFKIYAMGWYRQPHGKESELVARITGRGGSTYYADSVKGRFTISRDNAKNTVYLQMNSLKPEDTAVYYCAARVYTYYDDLHKRYYWGQGTQVTVSS”, the “polyreactivity (PSR sort gate)” value is “high polyreactivity”.
The result for “QLQLVESGGGLVQAGGSLRLSCAASGRTFQIYAMGWYRQAPVNERELVARITGVGSTNYADSVKGRFTISRDNAKNTVYLQMNSLKPEDTAVYYCNKRDGNWEYDYWGQGTQVTVSS” reads “low polyreactivity”.
